The record followed here is publication PMC7672431, “NMR structure of a vestigial nuclease provides insight into the evolution of functional transitions in viral dsDNA packaging motors” (Nucleic Acids Research, 2020).

By stoichiometry N is commonly meant the number of molecules, sites or subunits per partner or assembly. What is called Kd is the equilibrium constant for the complex coming apart.

Data set [1] addresses phi29 gp16 CTD (residues 223–332; C-terminal domain of the packaging ATPase) (bacteriophage phi29) (UniProt P11014). Nature of the data set: AUC; sedimentation velocity, 42 000 rpm, 30°C, c(s) distribution in SEDFIT; CTD-L at 25 and 55 μM, CTD at 30 and 85 μM.
Data set [2] concerns the molecule itself. The data set is described as above.
For data set [3], the target named is T1, phi29 DNA packaging ATPase gp16, full length, assembled as a pentameric ring in the packaging motor on procapsids (bacteriophage phi29), P11014.
T1 chain: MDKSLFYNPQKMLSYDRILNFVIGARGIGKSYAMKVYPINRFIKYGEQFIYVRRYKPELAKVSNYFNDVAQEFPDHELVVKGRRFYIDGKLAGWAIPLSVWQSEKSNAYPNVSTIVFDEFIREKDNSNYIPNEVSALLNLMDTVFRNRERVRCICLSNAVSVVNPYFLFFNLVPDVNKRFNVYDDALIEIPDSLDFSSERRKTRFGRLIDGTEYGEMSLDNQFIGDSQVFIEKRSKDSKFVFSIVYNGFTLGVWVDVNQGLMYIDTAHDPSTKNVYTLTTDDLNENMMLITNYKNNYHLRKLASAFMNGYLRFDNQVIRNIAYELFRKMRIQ
The data set is described as follows: cryo-EM structure; NMR structure of the CTD fitted into a ∼5.2 Å cryoEM map of phi29 particles stalled during packaging with γ-S-ATP (map of ref. 25; CTD density 5-fold averaged). To be noted: remark: other sources report otherwise.

Data set [4] addresses T2, gp16 CTD (C-terminal domain of DNA packaging ATPase) (bacteriophage phi29, UniProt P11014 223-332).
T2 sequence: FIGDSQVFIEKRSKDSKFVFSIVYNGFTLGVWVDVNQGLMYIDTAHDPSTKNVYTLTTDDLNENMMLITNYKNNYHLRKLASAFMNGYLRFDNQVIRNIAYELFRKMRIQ
The data set is described as follows: fluorescence intensity titration; Fluorescence: 50 mM sodium phosphate pH 6.5, 200 mM NaCl, temperature not stated; NMR: same buffer plus 0.02% NaN3, 2 mM DSS, ~100 uM protein, 303 K. The note with it: protein: recombinant, tags: His tag implied (pET30a NdeI/XhoI, Talon resin).

Turning to “phi29 gp16 CTD (residues 223–332; C-terminal domain of the packaging ATPase) (from UniProt P11014 223-332) (domain or fragment)”, in data set [1], the percent dimers at 30 and 85 μM worked out at 2%.

B1: phi29 gp16 CTD-L (residues 208–332; inter-domain linker and C-terminal domain of the packaging ATPase) (domain or fragment, bacteriophage phi29, UniProt P11014 208-332, looked up)
chain: LIDGTEYGEMSLDNQFIGDSQVFIEKRSKDSKFVFSIVYNGFTLGVWVDVNQGLMYIDTAHDPSTKNVYTLTTDDLNENMMLITNYKNNYHLRKLASAFMNGYLRFDNQVIRNIAYELFRKMRIQ
notes: DNA packaging ATPase gp16 of bacteriophage phi29 (332 amino acids), residues 208-332: inter-domain linker plus C-terminal domain; Cloned between NdeI and XhoI of pET30a, which would add a C-terminal His6 tag (surmised); Isotope-labelled for the NMR experiments; also called gp16 CTD-L (208–332); source: E. coli BL21(DE3), pET30a, purified (Talon resin, HiTrap Q HP)
For the molecule B1, the “stoichiometry N” value in data set [2] turned out to be 2.

B2: phi29 DNA packaging ATPase gp16, full length, assembled as a pentameric ring in the packaging motor on procapsids, P11014 1-332 (enzyme)
chain: T1 chain
In data set [3], B2 had a stoichiometry N of 5.

B3: pRNA A-helix mimic, 3'-fluorescein (structured_RNA)
RNA: UCAAUGGUACGGUACUUCCAUUGUCAUGUUUUUCAUGGCAAAAGUGCACGCUACUUUGAU
With B3, the Kd in data set [4] (label: 3' fluorescein (36FAM), hairpin) worked out at 3.2 µM.

B4: 22 bp dsDNA, 3'-fluorescein (dsDNA)
DNA 1: GGTATCATGTGAGGGTGGGGGC
DNA 2: GCCCCCACCCTCACATGATACC
For B4, the Kd in data set [4] (label: 3' fluorescein (36FAM) on strand 1, blunt) came to 3.1 µM.
